Laboratory results taken from patent US20250277790A1.

Experiments:
[1] = molecular target: human EGFR tagged with the fluorescent protein mTurquoise at the C-terminus (wild-type), in plasma membrane-derived vesicles from transfected CHO cells (human) (UniProt P00533); test: cell-based or functional assay
[2] = molecular target: L834R EGFR tagged with mTurquoise at the C-terminus, in plasma membrane-derived vesicles from transfected CHO cells (human) (UniProt P00533); test: cell-based or functional assay

Chain of Epiregulin (1195EP025 CF, R&D Systems) (O14944 63-108 limits assumed): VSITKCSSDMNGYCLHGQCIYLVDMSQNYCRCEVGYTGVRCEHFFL

| Substance | EC50 of Y1068 phosphorylation per EGFR molecule [1] [nM] | EC50 of Y1173 phosphorylation per EGFR molecule [1] [nM] | Etop of Y1068 phosphorylation per EGFR molecule [1] | Etop of Y1173 phosphorylation per EGFR molecule [1] | βlig (Y1068 vs Y1173), lig vs rho-mEGF [1] | EC50 of Y1068 phosphorylation per EGFR molecule [2] [nM] | EC50 of Y1173 phosphorylation per EGFR molecule [2] [nM] | Etop of Y1068 phosphorylation per EGFR molecule [2] | Etop of Y1173 phosphorylation per EGFR molecule [2] |
| --- | --- | --- | --- | --- | --- | --- | --- | --- | --- |
| Epiregulin (1195EP025 CF, R&D Systems) (from UniProt O14944 63-108) (ligand) | 19.5 | 16.2 | 0.43 | 0.16 | -0.23 | 5.8 | 0.7 | 0.2 | 0.09 |
| TGFα (239A100, R&D Systems) (from UniProt P01135 40-89) (ligand) | 3.4 | 5.2 | 0.59 | 0.17 | 0.13 | 3.2 | 0.3 | 0.17 | 0.12 |
